Numbering of substitutions follows the chain as printed. Names and notes keep the numbering of the source.
T1: cynomolgus monkey TLR4 in cynomolgus monkey whole blood (cynomolgus monkey, UniProt Q9TSP2 24-826 (Papio anubis entry))
T1 chain: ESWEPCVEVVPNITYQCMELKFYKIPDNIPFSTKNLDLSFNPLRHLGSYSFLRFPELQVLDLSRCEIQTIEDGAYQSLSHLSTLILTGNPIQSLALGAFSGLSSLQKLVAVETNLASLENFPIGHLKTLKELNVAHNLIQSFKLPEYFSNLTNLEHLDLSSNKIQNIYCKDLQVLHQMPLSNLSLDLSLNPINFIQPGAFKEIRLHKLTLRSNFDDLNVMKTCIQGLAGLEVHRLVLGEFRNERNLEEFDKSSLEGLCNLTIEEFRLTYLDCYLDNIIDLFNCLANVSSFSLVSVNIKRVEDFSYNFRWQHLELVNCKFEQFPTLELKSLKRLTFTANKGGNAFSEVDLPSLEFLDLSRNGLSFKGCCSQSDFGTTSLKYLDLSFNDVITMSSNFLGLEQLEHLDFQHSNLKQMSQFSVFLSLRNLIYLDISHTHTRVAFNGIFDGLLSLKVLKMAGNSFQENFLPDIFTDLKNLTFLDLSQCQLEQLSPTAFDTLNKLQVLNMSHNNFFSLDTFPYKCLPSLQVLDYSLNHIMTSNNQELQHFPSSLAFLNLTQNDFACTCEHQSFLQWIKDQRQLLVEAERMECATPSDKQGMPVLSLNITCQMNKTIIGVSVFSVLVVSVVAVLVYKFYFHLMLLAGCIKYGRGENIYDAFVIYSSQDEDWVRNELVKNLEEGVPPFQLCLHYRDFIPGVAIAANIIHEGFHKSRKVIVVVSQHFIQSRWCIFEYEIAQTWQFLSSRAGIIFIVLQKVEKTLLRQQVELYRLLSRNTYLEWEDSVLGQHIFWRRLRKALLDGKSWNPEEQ

T2: cynomolgus monkey TLR4 expressed on stably transfected CHO-K1 cells (cynomolgus monkey, UniProt Q9TSP2 24-826 (Papio anubis entry))
T2 construct: Transfected alone; also called CHO cells expressing the cynomolgus monkey TLR4
T2 chain: T1 chain

B1: 1E11.C2 antibody (IgG1) (antibody, V domains shown)
VH: QVQLQESGPGLVKPSDTLSLTCAVSGYPIRFGYSWHWIRQPPGKGLEWMGYIHYSGYTDFNPSLKTRITISRDTSKNQFSLKLSSVTAVDTAVYYCARKDSGNYFPYWGQGTLVTVSS
VL: EIVLTQSPDFQSVTPKEKVTITCRASQSISDHLHWYQQKPDQSPKLLIKYASHAISGVPSRFSGSGSGTDFTLTINSLEAEDAATYYCQQGHSFPLTFGGGTKVEIK
B2: 1E11.C2E1 antibody (IgG1) (antibody, V domains shown)
VH: B1 VH
VL: B1 VL with H92N, S93D, L96V
B3: 1E11.C2E4 antibody (IgG1) (antibody, V domains shown)
VH: B1 VH
VL: B1 VL with H92Y, S93D, F94Y
B4: 1E11.C2E5 antibody (IgG1) (antibody, V domains shown)
VH: B1 VH
VL: B1 VL with H92Y, S93E
B5: 1E11.C3 antibody (IgG1) (antibody, V domains shown)
VH: B1 VH with F31H
VL: B1 VL
B6: 1E11.C5 antibody (IgG1) (antibody, V domains shown)
VH: B1 VH with R30W, F31G
VL: B1 VL
B7: 1E11.C6 antibody (IgG1) (antibody, V domains shown)
VH: B1 VH with R30G, F31G
VL: B1 VL
B8: 1E11.E1 antibody (IgG1) (antibody, V domains shown)
VH: B1 VH with P28S, R30T, F31G
VL: B1 VL with H92N, S93D, L96V
B9: 1E11.E2 antibody (IgG1) (antibody, V domains shown)
VH: B1 VH with P28S, R30T, F31G
VL: B1 VL with H92Y, S93D, F94E, L96F
B10: 1E11.E3 antibody (IgG1) (antibody, V domains shown)
VH: B1 VH with P28S, R30T, F31G
VL: B1 VL with H92Y, S93D
B11: 1E11.E4 antibody (IgG1) (antibody, V domains shown)
VH: B1 VH with P28S, R30T, F31G
VL: B1 VL with H92Y, S93D, F94Y
B12: 1E11.E5 antibody (IgG1) (antibody, V domains shown)
VH: B1 VH with P28S, R30T, F31G
VL: B1 VL with H92Y, S93E
B13: 1E11.C1 antibody (IgG1 reformatted) (antibody, V domains shown)
VH: B1 VH with Y27F, F31Y
VL: EIVLTQSPDFQSVTPKEKVTITCRASQSISDHLHWYQQKPDQSPKLLIKYASHAISGVPSRFSGSGSGTDFTLTINSLEAEDAATYYCQQGHSFPLTFGGGTKVEIKR
notes: VH 67 / VL 4 are the variable domains
B14: 1A1 antibody (IgG1) (antibody, V domains shown)
VH: B1 VH with P28S, R30T, F31G, N103R, Y104L, F105L
VL: B1 VL
notes: also called 1A1 Mab
B15: 1A6 antibody (IgG1) (antibody, V domains shown)
VH: B1 VH with P28S, R30T, F31G, N103K, Y104W, F105L
VL: B1 VL
notes: also called 1A6 Mab
B16: 1B12 antibody (IgG1) (antibody, V domains shown)
VH: B1 VH with P28S, R30T, F31G, N103H, Y104L, F105M
VL: B1 VL
notes: also called 1B12 Mab
B17: 1C7 antibody (IgG1) (antibody, V domains shown)
VH: B1 VH with P28S, R30T, F31G, N103H, Y104N, F105Y
VL: B1 VL
notes: also called 1C7 Mab
B18: 1C10 antibody (IgG1) (antibody, V domains shown)
VH: B1 VH with P28S, R30T, F31G, N103K, Y104N
VL: B1 VL
notes: also called 1C10 Mab
B19: 1C12 antibody (IgG1) (antibody, V domains shown)
VH: B1 VH with P28S, R30T, F31G, N103Q, Y104L
VL: B1 VL
notes: also called 1C12 Mab
B20: 1D10 antibody (IgG1) (antibody, V domains shown)
VH: B1 VH with P28S, R30T, F31G, N103H, Y104N, F105L
VL: B1 VL
notes: also called 1D10 Mab
B21: 1E11 N103D antibody (IgG1) (antibody, V domains shown)
VH: B1 VH with P28S, R30T, F31G, N103D
VL: B1 VL
notes: 1E11 with the N103D mutation in the heavy chain; also called 1E11 N103D Mab
B22: 1G12 antibody (IgG1) (antibody, V domains shown)
VH: B1 VH with P28S, R30T, F31G, N103R, F105W
VL: B1 VL
notes: also called 1G12 Mab
B23: 1E11 antibody (IgG1 reformatted) (antibody, V domains shown)
VH: B1 VH with P28S, R30T, F31G
VL: B13 VL
notes: also called 1E11 Mab

Target: T1, cynomolgus monkey TLR4 in cynomolgus …
Experiment: cell-based or functional assay
B1 was tested, and the “IC50, inhibition of IL-6 production in cynomolgus monkey whole blood assay” value was ~0.5 µg/mL.

These binders were tested against human TLR4 in human whole blood (human) (assay: cell-based or functional assay).
In the case of B1, the “IC50, inhibition of IL-6 production in human whole blood assay” value is reported as 0.07 µg/mL and the “fold better than 15C1 at blocking human TLR4 (human whole blood assay)” value is reported as 3 fold.

What follows are binders tested against T3, soluble histidine-tagged form of human TLR4/MD2 complex (human, UniProt Q9Y6Y9 19-160) (assay: competitive ELISA; coated 15C1 as competitor, soluble His-tagged human TLR4/MD2, Penta-His-HRP).
T3 sequence (Q9Y6Y9 19-160, one chain of several): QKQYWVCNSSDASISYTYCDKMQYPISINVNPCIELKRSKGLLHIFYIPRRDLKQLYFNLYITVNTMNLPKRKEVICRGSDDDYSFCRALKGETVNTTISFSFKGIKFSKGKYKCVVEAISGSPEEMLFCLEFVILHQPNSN
Experimental: (§1) The VH and VL cDNA sequences in their appropriate expression vectors were transfected into mammalian cells using the Fugene 6 Transfection Reagent (Roche, Basel, Switzerland). Briefly, Peak cells were cultured in 6-well plates at a concentration of 6×10⁵ cells per well in 2 mL culture media containing fetal bovine serum. The expression vectors, encoding the candidate VH and VL sequences, were co-transfected into the cells using the Fugene 6 Transfection Reagent according to manufacturer's instructions. One day following transfection, the culture media was aspirated, and 3 mL of fresh serum-free media was added to cells and cultured for three days at 37° C. Following three days culture period, the supernatant was harvested for IgG purified on protein G-Sepharose 4B fast flow columns (Sigma, St. Louis, Mo.) according to manufacturer's instructions. Briefly, supernatants from transfected cells were incubated overnight at 4° C. with ImmunoPure (G) IgG binding buffer (Pierce, Rockford Ill.). Samples were then passed over Protein G-Sepharose 4B fast flow columns and the IgG consequently purified using elution buffer. The eluted IgG fraction was then dialyzed against PBS and the IgG content quantified by absorption at 280 nm. Purity and IgG integrity were verified by SDS-PAGE. Relative binding potency of 1E11 variants was assessed by competitive ELISA. Briefly, 15C1 antibody was coated overnight in a 96-well Maxisorp plate and then blocked with PBS-BSA. The 15C1 reference antibody and affinity matured variants of 1E11 were added to the plate at a fixed concentration and a 3.5-fold serial dilution of the samples was performed. Then, soluble histidine-tagged form of human TLR4/MD2 complex was added to the plate at a fixed concentration. After incubation one hour at 37° C., the plate was washed and a solution of Penta-His-HRP antibody was distributed, this step was followed by an additional incubation time of one hour at 37° C. Finally, the plate was washed and TMB was added for colorimetric revelation, the enzymatic reaction is stopped by H₂SO₄ solution. The results were determined according to the absorbance at 450 nm. The relative binding potency was calculated by dividing the reference EC₅₀ with affinity matured variants EC₅₀ (Table 8).
B1 showed an EC50 of 0.036 µg/mL. Binder B2 has an EC50 of 0.021 µg/mL. B3 gave an EC50 of 0.015 µg/mL. B4 gave an EC50 of 0.017 µg/mL. B5 was tested, and the EC50 was 0.119 µg/mL. Work on B6 yielded an EC50 of 0.087 µg/mL. B7 gave an EC50 of 0.061 µg/mL. B8 showed an EC50 of 0.157 µg/mL. B9 gave an EC50 of 0.315 µg/mL. Work on B10 yielded an EC50 of 0.126 µg/mL. B11 was tested, and the EC50 was 0.13 µg/mL. Work on B12 yielded an EC50 of 0.152 µg/mL. B13 gave an EC50 of 0.052 µg/mL.

Target: T2, cynomolgus monkey TLR4 expressed on …
Experiment: summary table of species specificity (flow cytometry results)
Experimental: 10⁵ CHO cells or CHO cells expressing the cynomolgus monkey TLR4 were incubated in phosphate-buffered saline, 2% bovine serum albumin with different concentrations of purified antibodies selected by FMAT (1A1, 1A6, 1B12, 1C7, 1C10, 1C12, 1D10, 1E11, 1G12) with 15C1 as control. Cells were washed in phosphate-buffered saline, 2% bovine serum albumin and incubated in Alexa Fluor® 647 goat anti human IgG (H+L) (1:200; Invitrogen). Cells were analyzed using a FACS calibur cytometer (BD Biosciences).
Similar experiments were conducted with CHO cells or CHO cells expressing the human TLR4/MD2 complex. […] 1C12 Mab was also able to bind to human TLR4 but with a lower potency compared to 1E11 and 15C1 Mabs.
B14: binds. B15: binds. B16: binds. B17: binds. B18: binds. B19: binds. B20: binds. B21: binds. B22: binds.

Target: T2, cynomolgus monkey TLR4 expressed on …
Experiment: summary grade (species binding potential); assay not given
B2: binds. B3: binds. B4: binds. B5: binds. B6: binds. B7: binds. B8: binds. B9: binds. B10: binds. B11: binds. B12: binds. B23: binds.

These binders were tested against T3, soluble histidine-tagged form of human … (assay: competitive ELISA; 15C1 reference EC50 divided by variant EC50).
Experimental: as §1
For B1, the “Relative binding potency increase” value was 17 fold. With B2 the “Relative binding potency increase” value was 29 fold. With B3 the “Relative binding potency increase” value was 40 fold. In the case of B4, the “Relative binding potency increase” value is reported as 36 fold. With B5 the “Relative binding potency increase” value was 5 fold. For B6, the “Relative binding potency increase” value was 7 fold. B7 was tested, and the “Relative binding potency increase” value was 10 fold. In the case of B8, the “Relative binding potency increase” value is reported as 4 fold. In the case of B9, the “Relative binding potency increase” value is reported as 2 fold. With B10 the “Relative binding potency increase” value was 5 fold. For B11, the “Relative binding potency increase” value was 5 fold. B12 was tested, and the “Relative binding potency increase” value was 4 fold. For B13, the “Relative binding potency increase” value was 12 fold.

Source: US20130315914A1 (NOVIMMUNE, published 2013)
